Source: patent US20250115678A1 (AstraZeneca / MedImmune, published 2025)

Columns and labels:
[1] = target: recombinant cynomolgus monkey GPC3 (cynomolgus monkey, UniProt A0A2K5VK50 24-558); experiment: SPR (Biacore), soluble antigen, mean ± SD of three experiments
Method: (§1) KD were calculated as the ratio of koff/kₒₙ from a non-linear fit of the data. Values are presented as mean±standard deviation (SD) of three experiments.

recombinant human CD8ab = target: T1, recombinant human CD8ab (human, UniProt P01732 22-182; P10966 22-170); experiment: as above
T1 construct: Soluble form of the CD8 alpha/beta heterodimer; construct not described
Method: as §1

[2] = target: T2, soluble recombinant human GPC3 protein (human, UniProt P51654 25-559, biotinylated in the biolayer interferometry assay); experiment: as above
T2 construct: also called GPC3 human
Method: as §1

[3] = target: T3, recombinant cynomolgus monkey CD8ab (cynomolgus monkey); experiment: as above
T3 construct: Soluble form of the CD8 alpha/beta heterodimer; construct not described
Method: as §1

[4] = target: T4, GPC3 on human hepatoma cells (Hep3B, HepG2) (human, UniProt P51654 25-554); experiment: flow cytometry on HepG2 cells, goat anti-human-IgG-APC; HepG2 cells
T4 construct: whole, on cells; also called Glypican-3
Method: (§2) Cell bindings were measured by flow cytometry.
as §2

[5] = target: T4, GPC3 on human hepatoma cells (Hep3B, …); experiment: flow cytometry on Hep3B cells, goat anti-human-IgG-APC; Hep3B cells
Method: as §2, §2

[6] = target: T5, LRRC15 on LRRC15pos tumour cell lines (Saos-2 WT, RPMI-7951 WT) (UniProt Q8TF66 22-581, limits assumed); experiment: Flow cytometry on Saos-2 WT cells (LRRC15pos), detected with anti-human Fc Alexa Fluor 647 (MFI)
T5 construct: whole, on cells; also called leucine rich repeat containing 15
T5 sequence (looked up): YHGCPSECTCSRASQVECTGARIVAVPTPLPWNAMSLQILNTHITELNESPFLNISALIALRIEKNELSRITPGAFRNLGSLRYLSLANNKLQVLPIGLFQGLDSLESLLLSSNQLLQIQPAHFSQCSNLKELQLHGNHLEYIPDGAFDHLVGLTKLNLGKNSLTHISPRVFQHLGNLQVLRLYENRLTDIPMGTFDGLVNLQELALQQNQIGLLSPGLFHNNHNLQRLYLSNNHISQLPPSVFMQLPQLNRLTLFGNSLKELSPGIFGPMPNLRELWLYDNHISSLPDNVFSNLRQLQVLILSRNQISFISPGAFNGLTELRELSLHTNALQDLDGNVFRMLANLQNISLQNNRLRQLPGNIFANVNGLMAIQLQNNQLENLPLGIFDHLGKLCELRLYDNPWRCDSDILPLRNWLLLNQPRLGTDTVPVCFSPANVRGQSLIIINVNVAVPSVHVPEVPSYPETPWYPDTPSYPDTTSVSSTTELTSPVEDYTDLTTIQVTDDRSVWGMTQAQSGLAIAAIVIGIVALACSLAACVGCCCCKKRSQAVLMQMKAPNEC

[7] = target: T5, LRRC15 on LRRC15pos tumour cell lines …; experiment: Flow cytometry on RPMI-7951 WT cells (LRRC15pos), detected with anti-human Fc Alexa Fluor 647 (MFI)

T1 sequence (P01732 22-182, chain 1 of 2): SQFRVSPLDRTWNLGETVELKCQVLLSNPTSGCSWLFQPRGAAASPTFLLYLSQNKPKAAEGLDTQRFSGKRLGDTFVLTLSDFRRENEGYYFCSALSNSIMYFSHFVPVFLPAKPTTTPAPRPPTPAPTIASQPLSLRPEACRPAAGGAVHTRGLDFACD
T1 sequence (P10966 22-170, chain 2 of 2): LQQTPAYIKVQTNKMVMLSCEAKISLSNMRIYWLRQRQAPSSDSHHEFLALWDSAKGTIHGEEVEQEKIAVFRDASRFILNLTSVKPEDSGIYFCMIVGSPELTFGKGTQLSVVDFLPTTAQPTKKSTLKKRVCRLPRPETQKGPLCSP
T2 sequence (P51654 25-559 limits assumed): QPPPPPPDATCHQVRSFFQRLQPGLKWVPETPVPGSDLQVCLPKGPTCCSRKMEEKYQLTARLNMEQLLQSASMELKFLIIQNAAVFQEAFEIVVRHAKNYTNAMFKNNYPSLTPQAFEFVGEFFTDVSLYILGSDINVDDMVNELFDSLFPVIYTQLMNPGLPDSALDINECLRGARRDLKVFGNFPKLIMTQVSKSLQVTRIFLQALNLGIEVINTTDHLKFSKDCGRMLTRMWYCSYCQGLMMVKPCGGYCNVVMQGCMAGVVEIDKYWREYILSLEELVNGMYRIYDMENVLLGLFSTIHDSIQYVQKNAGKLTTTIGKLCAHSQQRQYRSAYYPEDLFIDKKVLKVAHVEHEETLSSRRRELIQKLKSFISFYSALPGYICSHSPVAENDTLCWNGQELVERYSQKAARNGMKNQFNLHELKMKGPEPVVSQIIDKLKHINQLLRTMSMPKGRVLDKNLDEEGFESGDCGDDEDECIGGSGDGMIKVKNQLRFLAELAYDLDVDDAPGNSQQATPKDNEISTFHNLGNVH
T4 sequence (P51654 25-554 limits assumed): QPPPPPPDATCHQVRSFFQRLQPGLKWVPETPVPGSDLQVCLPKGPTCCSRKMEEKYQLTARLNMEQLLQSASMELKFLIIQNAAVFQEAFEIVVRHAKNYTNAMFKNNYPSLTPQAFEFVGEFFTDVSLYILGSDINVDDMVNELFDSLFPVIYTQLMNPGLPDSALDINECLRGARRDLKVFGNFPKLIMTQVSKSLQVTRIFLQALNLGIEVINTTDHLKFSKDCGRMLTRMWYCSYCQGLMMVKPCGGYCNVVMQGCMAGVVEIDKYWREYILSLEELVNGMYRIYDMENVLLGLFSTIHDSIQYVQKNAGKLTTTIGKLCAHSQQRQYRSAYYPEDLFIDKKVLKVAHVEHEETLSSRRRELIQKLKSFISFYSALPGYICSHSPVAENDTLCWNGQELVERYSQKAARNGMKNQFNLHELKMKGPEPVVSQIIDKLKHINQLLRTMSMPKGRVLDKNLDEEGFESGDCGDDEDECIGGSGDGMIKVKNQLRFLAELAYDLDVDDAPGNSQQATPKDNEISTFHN

B1: LM1653 (other)
light: DVVMTQSPLSLPVTPGEPASISCRSSQSLVHSNRNTYLHWYLQKPGQSPQLLIYKVSNRFSGVPDRFSGSGSGTDFTLKISRVEAEDVGVYYCSQNTHVPPTFGQGTKLEIKRTVAAPSVFIFPPSDEQLKSGTASVVCLLNNFYPREAKVQWKVDNALQSGNSQESVTEQDSKDSTYSLSSTLTLSKADYEKHKVYACEVTHQGLSSPVTKSFNRGEC
heavy 1: QVQLVQSGAEVKKPGASVKVSCKASGYTFTDYEMHWVRQAPGQGLEWMGALDPKTGDTAYSQKFKGRVTLTADKSTSTAYMELSSLTSEDTAVYYCTRFYSYTYWGQGTLVTVSSASTKGPSVFPLAPSSKSTSGGTAALGCLVKDYFPEPVTVSWNSGALTSGVHTFPAVLQSSGLYSLSSVVTVPSSSLGTQTYICNVNHKPSNTKVDKRVEPKSCDKTGGSEVQLVESGGGLVQPGGSLRLSCVASGDVHKINFLGWYRQAPGKEREKVAHISIGDQTDYADSAKGRFTISRDESKNMVYLQMNSLKPEDTAVYFCRAFSRIYPYDYWGQGTLVTVSSGGGGSTHTCPPCPAPPVAGPSVFLFPPKPKDTLMISRTPEVTCVVVDVKHEDPEVKFNWYVDGVEVHNAKTKPREEQYNSTYRVVSVLTVLHQDWLNGKEYKCKVSNKALPAPIEKTISKAKGQPREPQVCTLPPSREEMTKNQVSLSCAVKGFYPSDIAVEWESNGQPENNYKTTPPVLDSDGSFFLVSKLTVDKSRWQQGNVFSCSVMHEALHNHYTQKSLSLSPGK
heavy 2: QVQLVQSGAEVKKPGASVKVSCKASGYTFTDYEMHWVRQAPGQGLEWMGALDPKTGDTAYSQKFKGRVTLTADKSTSTAYMELSSLTSEDTAVYYCTRFYSYTYWGQGTLVTVSSASTKGPSVFPLAPSSKSTSGGTAALGCLVKDYFPEPVTVSWNSGALTSGVHTFPAVLQSSGLYSLSSVVTVPSSSLGTQTYICNVNHKPSNTKVDKRVEPKSCDKTGGSEVQLLESGGGLVQPGGSLRLSCAASGFTFDDYAIGWFRQAPGKEREGVSCIRVSDGSTYYADSVKGRFTISRDNSKNTLYLQMNSLRAEDTAVYYCAAGSLYTCVQSIVWPARPYYDMDYWGQGTLVTVSSGGGGSTHTCPPCPAPPVAGPSVFLFPPKPKDTLMISRTPEVTCVVVDVKHEDPEVKFNWYVDGVEVHNAKTKPREEQYNSTYRVVSVLTVLHQDWLNGKEYKCKVSNKALPAPIEKTISKAKGQPREPQVYTLPPCREEMTKNQVSLWCLVKGFYPSDIAVEWESNGQPENNYKTTPPVLDSDGSFFLYSKLTVDKSRWQQGNVFSCSVMHEALHNHYTQKSLSLSPGK
notes: also called GPC3 TITAN; LM1653 (GPC3)
[1]
  Kd: 0.82 nM
  koff: 0.000267 s⁻¹
  kon: 326000 M⁻¹ s⁻¹
Recombinant human CD8ab
  Kd: 82.7 nM
  koff: 0.028 s⁻¹
  kon: 340000 M⁻¹ s⁻¹
[2]
  Kd: 0.67 nM
  koff: 0.000226 s⁻¹
  kon: 341000 M⁻¹ s⁻¹
[3]
  Kd: 62.4 nM
  koff: 0.0329 s⁻¹
  kon: 527000 M⁻¹ s⁻¹
[4]
  EC50: 2 nM
[5]
  EC50: 8 nM

B2: LRC150016 (other)
light: DIQMTQSPSSLSASVGDRVTITCRASQDISNYLNWYQQKPGGAVKFLIYYTSRLHSGVPSRFSGSGSGTDYTLTISSLQPEDFATYFCQQGEALPWTFGGGTKVEIKRTVAAPSVFIFPPSDEQLKSGTASVVCLLNNFYPREAKVQWKVDNALQSGNSQESVTEQDSKDSTYSLSSTLTLSKADYEKHKVYACEVTHQGLSSPVTKSFNRGEC
heavy 1: EVQLVQSGAEVKKPGASVKVSCKASGYKFSSYWIEWVKQAPGQGLEWIGEILPGSDTTNYNEKFKDRATFTSDTSINTAYMELSRLRSDDTAVYYCARDRGNYRAWFGYWGQGTLVTVSSASTKGPSVFPLAPSSKSTSGGTAALGCLVKDYFPEPVTVSWNSGALTSGVHTFPAVLQSSGLYSLSSVVTVPSSSLGTQTYICNVNHKPSNTKVDKRVEPKSCDKTGGSEVQLVESGGGLVQPGGSLRLSCVASGDVHKINFLGWYRQAPGKEREKVAHISIGDQTDYADSAKGRFTISRDESKNMVYLQMNSLKPEDTAVYFCRAFSRIYPYDYWGQGTLVTVSSGGGGSTHTCPPCPAPPVAGPSVFLFPPKPKDTLMISRTPEVTCVVVDVKHEDPEVKFNWYVDGVEVHNAKTKPREEQYNSTYRVVSVLTVLHQDWLNGKEYKCKVSNKALPAPIEKTISKAKGQPREPQVCTLPPSREEMTKNQVSLSCAVKGFYPSDIAVEWESNGQPENNYKTTPPVLDSDGSFFLVSKLTVDKSRWQQGNVFSCSVMHEALHNRFTQKSLSLSPGK
heavy 2: EVQLVQSGAEVKKPGASVKVSCKASGYKFSSYWIEWVKQAPGQGLEWIGEILPGSDTTNYNEKFKDRATFTSDTSINTAYMELSRLRSDDTAVYYCARDRGNYRAWFGYWGQGTLVTVSSASTKGPSVFPLAPSSKSTSGGTAALGCLVKDYFPEPVTVSWNSGALTSGVHTFPAVLQSSGLYSLSSVVTVPSSSLGTQTYICNVNHKPSNTKVDKRVEPKSCDKTGGSEVQLLESGGGLVQPGGSLRLSCAASGFTFDDYAIGWFRQAPGKEREGVSCIRVSDGSTYYADSVKGRFTISRDNSKNTLYLQMNSLRAEDTAVYYCAAGSLYTCVQSIVWPARPYYDMDYWGQGTLVTVSSGGGGSTHTCPPCPAPPVAGPSVFLFPPKPKDTLMISRTPEVTCVVVDVKHEDPEVKFNWYVDGVEVHNAKTKPREEQYNSTYRVVSVLTVLHQDWLNGKEYKCKVSNKALPAPIEKTISKAKGQPREPQVYTLPPCREEMTKNQVSLWCLVKGFYPSDIAVEWESNGQPENNYKTTPPVLDSDGSFFLYSKLTVDKSRWQQGNVFSCSVMHEALHNHYTQKSLSLSPGK
notes: also called LRC150016 (LRRC15); LRC150016 engager
[6]
  EC50 (read off the curve): ~2 nM
[7]
  EC50 (read off the curve): ~3 nM
